Data taken from patent publication US10406204B2, “Multimeric antimicrobial peptide complex which is displayed on cell surface” (KOREA ADVANCED INSTITUTE OF SCIENCE AND TECHNOLOGY, priority 2010, dated 2019).

What was measured:
Assay in all cases: Antimicrobial activity of pepsin-treated E. coli displaying multimeric antimicrobial peptide complex
Type in all cases: cell-based
Details in all cases: pepsin-digested in SGF 30 minutes; E. coli BL21 (DE3) = 0%, synthesized Hinge2L = 100%; OD595
[1] = system: gram-negative Escherichia coli
Experimental: (§1) The antimicrobial effect of the E. coli strain, constructed in Example 4 and displaying the multimeric antimicrobial peptide complex on the cell surface, was measured. Specifically, the transformed E. coli BL21 (DE3) was cultured in 100 ml of LB medium, and when the culture medium reached an OD600 of 0.5-0.6, 0.2 mM IPTG was added thereto to induce the expression of the multimeric antimicrobial peptide complex linked to the cell surface anchoring motif. 4 hours after the induction of the expression, the medium was removed, and the cells were washed twice with NAPB (sodium phosphate buffer), and then resuspended in the same buffer. All the E. coli samples were adjusted to a cell number of 1×10^10 cfu/ml. Then, pepsin was dissolved in simulated gastric fluid (SGF) (0.084 N HCl, 35 mM NaCl, pH 1.2 or 2.0), and the E. coli cells were treated with the pepsin solution and incubated for 30 minutes. After the incubation, in order to deactivate pepsin and neutralize the pH, the same concentration of NaOH aqueous solution as that of the simulated gastric fluid was added to the cells, and the cell solution was centrifuged to remove cell debris other than the monomeric antimicrobial peptide digested by pepsin.
(§2) The antimicrobial activities of the pepsin-digested monomeric antimicrobial peptide against gram-positive Staphylococus aureus, gram-negative Escherichia coli and the yeast Saccharomyces cerevisiae were measured.
(§3) Each of the microbial strains was collected in the exponential growth phase during the culture, washed twice with NAPB, and then resuspended in the same buffer. The number of the microbial cells was adjusted to 1×10^5 cfu/ml. 10 μl of an aqueous solution containing each microbial strain and the pepsin-digested monomeric antimicrobial peptide was dispensed into each well of a 96-well plate, mixed well and incubated at 37° C. for 3 hours. After 3 hours, 2×TSB (Trypticase Soy Broth) medium was added to the cells which were then incubated at 37° C. for 12 hours, after which the absorbance at OD595 was measured.

[2] = system: gram-positive Staphylococus aureus
Experimental: as §1, §2, §3

[3] = system: yeast Saccharomyces cerevisiae
Experimental: as §1, §2, §3

B1: LH3: trimer of antimicrobial peptide Hinge2L linked to cell surface anchoring motif Lpp-OmpA, displayed on E. coli BL21 (DE3) (protein)
chain: MKATKLVLGNNNGPTHENQLGAGAFGGYQVNPYVGFEMGYDWLGRMPYKGSVENGAYKAQGVQLTAKLGYPITDDLDIYTRLGGMVWRADTKSNVYGKNHDTGVSPVFAGGVEYAITPEIATRGRLRVVRQWPIGRVVRRVVRRVVRLRVVRQWPIGRVVRRVVRRVVRLRVVRQWPIGRVVRRVVRRVVRL
modifications: displayed on E. coli BL21(DE3); DNA sequence of Lpp-OmpA-Hinge2L3
Molecule B1 has an antimicrobial activity [1] of 30%, an antimicrobial activity [2] of 17.95% and an antimicrobial activity [3] of 33.17%.
